Measured values reported in patent US20160264649A1.

Legend:
Experiment in all cases: cell-based or functional assay
[1] = target: HIV-1 Env of isolate 92UG001 (subtype D) (HIV-1)
[2] = target: HIV-1 Env of isolate 92UG005 (subtype D) (HIV-1)
[3] = target: HIV-1 Env of isolate 92UG024 (subtype D) (HIV-1)
[4] = target: HIV-1 Env of isolate 92UG046 (subtype D) (HIV-1)
[5] = target: HIV-1 Env of isolate 92UG114 (subtype D) (HIV-1)
[6] = target: HIV-1 Env of isolate 98CN006 (subtype CRF08_BC) (HIV-1)
[7] = target: HIV-1 Env of isolate 98CN009 (subtype CRF07_BC) (HIV-1)
[8] = target: HIV-1 Env of isolate MGRM-D-001 (subtype D) (HIV-1)
[9] = target: HIV-1 Env of isolate MGRM-D-002 (subtype D) (HIV-1)
[10] = target: HIV-1 Env of isolate MGRM-D-003 (subtype D) (HIV-1)
[11] = target: HIV-1 Env of isolate MGRM-D-004 (subtype D) (HIV-1)
[12] = target: HIV-1 Env of isolate MGRM-D-005 (subtype D) (HIV-1)
[13] = target: HIV-1 Env of isolate MGRM-D-008 (subtype D) (HIV-1)
[14] = target: HIV-1 Env of isolate MGRM-D-011 (subtype D) (HIV-1)
[15] = target: HIV-1 Env of isolate MGRM-D-012 (subtype D) (HIV-1)
[16] = target: HIV-1 Env of isolate MGRM-D-013 (subtype D) (HIV-1)
[17] = target: HIV-1 Env of isolate MGRM-D-014 (subtype D) (HIV-1)
[18] = target: HIV-1 Env of isolate MGRM-D-016 (subtype D) (HIV-1)
[19] = target: HIV-1 Env of isolate MGRM-D-018 (subtype D) (HIV-1)
[20] = target: HIV-1 Env of isolate MGRM-D-019 (subtype D) (HIV-1)
[21] = target: HIV-1 Env of isolate MGRM-D-020 (subtype D) (HIV-1)
[22] = target: HIV-1 Env of isolate MGRM-D-021 (subtype D) (HIV-1)
[23] = target: HIV-1 Env of isolate MGRM-D-022 (subtype D) (HIV-1)
[24] = target: HIV-1 Env of isolate MGRM-D-024 (subtype D) (HIV-1)
[25] = target: HIV-1 Env of isolate MGRM-D-026 (subtype D) (HIV-1)
[26] = target: HIV-1 Env of isolate MGRM-D-028 (subtype D) (HIV-1)
[27] = target: HIV-1 Env of isolate MGRM-D-029 (subtype D) (HIV-1)
[28] = target: HIV-1 Env of isolate MGRM-F1-004 (subtype F) (HIV-1)
[29] = target: HIV-1 Env of isolate MGRM-F1-006 (subtype F) (HIV-1)
[30] = target: HIV-1 Env of isolate MGRM-F1-008 (subtype F) (HIV-1)
[31] = target: HIV-1 Env of isolate MGRM-F1-010 (subtype F) (HIV-1)
[32] = target: HIV-1 Env of isolate MGRM-F1-012 (subtype F) (HIV-1)
[33] = target: HIV-1 Env of isolate MGRM-F1-013 (subtype F) (HIV-1)
[34] = target: HIV-1 Env of isolate MGRM-F1-014 (subtype F) (HIV-1)
[35] = target: HIV-1 Env of isolate MGRM-F1-015 (subtype F) (HIV-1)
[36] = target: HIV-1 Env of isolate MGRM-F1-016 (subtype F) (HIV-1)
[37] = target: HIV-1 Env of isolate MGRM-F1-017 (subtype F) (HIV-1)
[38] = target: HIV-1 Env of isolate MGRM-F1-018 (subtype F) (HIV-1)
[39] = target: HIV-1 Env of isolate MGRM-F1-020 (subtype F) (HIV-1)
[40] = target: HIV-1 Env of isolate MGRM-F1-021 (subtype F) (HIV-1)
[41] = target: HIV-1 Env of isolate MGRM-F1-022 (subtype F) (HIV-1)
[42] = target: HIV-1 Env of isolate MGRM-F1-023 (subtype F) (HIV-1)
[43] = target: HIV-1 Env of pseudovirus isolate MGRM-G-001 (subtype G) (HIV-1)
[44] = target: HIV-1 Env of pseudovirus isolate MGRM-G-004 (subtype G) (HIV-1)
[45] = target: HIV-1 Env of pseudovirus isolate MGRM-G-006 (subtype G) (HIV-1)
[46] = target: HIV-1 Env of pseudovirus isolate MGRM-G-009 (subtype G) (HIV-1)
[47] = target: HIV-1 Env of pseudovirus isolate MGRM-G-011 (subtype G) (HIV-1)
[48] = target: HIV-1 Env of pseudovirus isolate MGRM-G-013 (subtype G) (HIV-1)
[49] = target: HIV-1 Env of pseudovirus isolate MGRM-G-014 (subtype G) (HIV-1)
[50] = target: HIV-1 Env of pseudovirus isolate MGRM-G-015 (subtype G) (HIV-1)
[51] = target: HIV-1 Env of pseudovirus isolate MGRM-G-016 (subtype G) (HIV-1)
[52] = target: HIV-1 Env of pseudovirus isolate MGRM-G-017 (subtype G) (HIV-1)
[53] = target: HIV-1 Env of pseudovirus isolate MGRM-G-019 (subtype G) (HIV-1)
[54] = target: HIV-1 Env of pseudovirus isolate MGRM-G-024 (subtype G) (HIV-1)
[55] = target: HIV-1 Env of pseudovirus isolate MGRM-G-025 (subtype G) (HIV-1)
[56] = target: HIV-1 Env of pseudovirus isolate MGRM-G-027 (subtype G) (HIV-1)
[57] = target: HIV-1 Env of pseudovirus isolate MGRM-G-028 (subtype G) (HIV-1)
[58] = target: envelope of aMLV pseudovirus (negative control)

B1: PGT-127 (antibody, V domains shown)
VH: QPQLQESGPGLVEASETLSLTCTVSGDSTGRCNYFWGWVRQPPGKGLEWIGSLSHCRSYYNTDWTYHNPSLKSRLTISLDTPKNQVFLRLTSVTAADTATYYCARFGGEVLVYRDWPKPAWVDLWGRGTLVVTVS
VL: QSALTQPPSASGSPGQSITISCTGTSNNFVSWYQQYPGKAPKLVIYEVNKRPSGVPDRFSGSKSGSTASLTVSGLQADDEGVYYCSSLVGNWDVIFGGGTKLTVL
[1]
  IC50 (neutralization): > 50 µg/mL
[2]
  IC50 (neutralization): 1.11 µg/mL
[3]
  IC50 (neutralization): > 50 µg/mL
[4]
  IC50 (neutralization): > 50 µg/mL
[5]
  IC50 (neutralization): 7.09 µg/mL
[6]
  IC50 (neutralization): 0.067 µg/mL
[7]
  IC50 (neutralization): 0.09 µg/mL
[8]
  IC50 (neutralization): 2.23 µg/mL
[9]
  IC50 (neutralization): 0.6 µg/mL
[10]
  IC50 (neutralization): 0.029 µg/mL
[11]
  IC50 (neutralization): > 50 µg/mL
[12]
  IC50 (neutralization): 6.04 µg/mL
[13]
  IC50 (neutralization): > 50 µg/mL
[14]
  IC50 (neutralization): 0.015 µg/mL
[15]
  IC50 (neutralization): > 50 µg/mL
[16]
  IC50 (neutralization): > 50 µg/mL
[17]
  IC50 (neutralization): 0.393 µg/mL
[18]
  IC50 (neutralization): > 50 µg/mL
[19]
  IC50 (neutralization): 0.021 µg/mL
[20]
  IC50 (neutralization): > 50 µg/mL
[21]
  IC50 (neutralization): 0.015 µg/mL
[22]
  IC50 (neutralization): 0.056 µg/mL
[23]
  IC50 (neutralization): > 50 µg/mL
[24]
  IC50 (neutralization): 1.95 µg/mL
[25]
  IC50 (neutralization): > 50 µg/mL
[26]
  IC50 (neutralization): > 50 µg/mL
[27]
  IC50 (neutralization): > 50 µg/mL
[28]
  IC50 (neutralization): 0.068 µg/mL
[29]
  IC50 (neutralization): 7.17 µg/mL
[30]
  IC50 (neutralization): > 50 µg/mL
[31]
  IC50 (neutralization): > 50 µg/mL
[32]
  IC50 (neutralization): > 50 µg/mL
[33]
  IC50 (neutralization): > 50 µg/mL
[34]
  IC50 (neutralization): > 50 µg/mL
[35]
  IC50 (neutralization): > 50 µg/mL
[36]
  IC50 (neutralization): > 50 µg/mL
[37]
  IC50 (neutralization): > 50 µg/mL
[38]
  IC50 (neutralization): 3.59 µg/mL
[39]
  IC50 (neutralization): > 50 µg/mL
[40]
  IC50 (neutralization): > 50 µg/mL
[41]
  IC50 (neutralization): > 50 µg/mL
[42]
  IC50 (neutralization): 0.119 µg/mL
[43]
  IC50: 0.113 µg/mL
[44]
  IC50: > 50 µg/mL
[45]
  IC50: > 50 µg/mL
[46]
  IC50: > 50 µg/mL
[47]
  IC50: > 50 µg/mL
[48]
  IC50: 7.7 µg/mL
[49]
  IC50: 0.009 µg/mL
[50]
  IC50: > 50 µg/mL
[51]
  IC50: > 50 µg/mL
[52]
  IC50: > 50 µg/mL
[53]
  IC50: 0.429 µg/mL
[54]
  IC50: > 50 µg/mL
[55]
  IC50: 19.3 µg/mL
[56]
  IC50: > 50 µg/mL
[57]
  IC50: 0.032 µg/mL
[58]
  IC50: > 50 µg/mL
